Experiments:
HLA-A*24:02 [1] = assay: IEDB peptide-MHC binding, purified MHC/competitive/fluorescence; filed as Kd, often an IC50 or EC50 that approximates it; ≥ and ≤ were set here for values at or beyond the usual limits of such assays
HLA-C*07:02 = assay: IEDB peptide-MHC binding, purified MHC/direct/fluorescence; filed as Kd, often an IC50 or EC50 that approximates it; ≥ and ≤ were set here for values at or beyond the usual limits of such assays
HLA-B*15:01 [2] = assay: IEDB peptide-MHC binding, purified MHC/competitive/fluorescence; filed as Kd, often an IC50 or EC50 that approximates it; ≥ and ≤ were set here for values at or beyond the usual limits of such assays; settings: source organism: Homo sapiens
HLA-B*08:01 = assay: as above; settings: source organism: Homo sapiens
HLA-A*26:03 = assay: as above; settings: source organism: Homo sapiens
HLA-A*02:06 = assay: as above
HLA-A*30:01 = assay: as above; settings: source organism: Homo sapiens
HLA-B*39:01 = assay: as above; settings: source organism: Homo sapiens
HLA-A*02:03 = assay: as above
HLA-B*18:01 = assay: as above; settings: source organism: Homo sapiens
HLA-A*26:02 = assay: as above
HLA-B*15:01 [3] = assay: IEDB peptide-MHC binding, purified MHC/competitive/fluorescence; ≥ and ≤ were set here for values at or beyond the usual limits of such assays; settings: source organism: Vaccinia virus WR
HLA-A*01:01 [4] = assay: as above; settings: source organism: Vaccinia virus WR
HLA-A*03:01 = assay: as above; settings: source organism: Vaccinia virus WR
HLA-A*11:01 = assay: as above; settings: source organism: Vaccinia virus WR
HLA-A*24:02 [5] = assay: as above; settings: source organism: Vaccinia virus WR
HLA-A*02:01 [6] = assay: as above; settings: source organism: Vaccinia virus WR
HLA-B*15:17 = assay: IEDB peptide-MHC binding, purified MHC/competitive/fluorescence; filed as Kd, often an IC50 or EC50 that approximates it; ≥ and ≤ were set here for values at or beyond the usual limits of such assays; settings: source organism: Human immunodeficiency virus 1
HLA-B*35:01 = assay: as above; settings: source organism: Human immunodeficiency virus 1
HLA-A*02:01 [7] = assay: as above; settings: source organism: Human immunodeficiency virus 1
HLA-B*45:06 = assay: as above
HLA-B*83:01 = assay: as above
HLA-C*04:01 = assay: as above
HLA-B*15:42 = assay: as above
HLA-C*14:02 [8] = assay: as above
HLA-A*68:23 = assay: as above; settings: source organism: Mycobacterium tuberculosis variant bovis BCG str. Pasteur 1173P2
HLA-C*06:02 [9] = assay: as above; settings: source organism: Mycobacterium tuberculosis variant bovis BCG str. Pasteur 1173P2
HLA-A*29:02 = assay: as above; settings: source organism: Staphylococcus aureus subsp. aureus N315
HLA-A*32:07 = assay: as above; settings: source organism: Staphylococcus aureus subsp. aureus N315
HLA-A*01:01 [10] = assay: as above; settings: source organism: Staphylococcus aureus subsp. aureus N315
HLA-A*32:15 = assay: as above; settings: source organism: Staphylococcus aureus subsp. aureus N315
HLA-C*14:02 [11] = assay: IEDB peptide-MHC binding, purified MHC/direct/fluorescence; filed as Kd, often an IC50 or EC50 that approximates it; ≥ and ≤ were set here for values at or beyond the usual limits of such assays; settings: source organism: Rickettsia felis URRWXCal2
HLA-C*15:02 = assay: as above
HLA-C*06:02 [12] = assay: as above
HLA-B*40:02 = assay: IEDB peptide-MHC binding, cellular MHC/competitive/fluorescence; ≥ and ≤ were set here for values at or beyond the usual limits of such assays; settings: source organism: Homo sapiens
HLA-A*24:02 [13] = assay: as above; settings: source organism: Human herpesvirus 5 strain AD169
HLA-A*03:19 = assay: IEDB peptide-MHC binding, purified MHC/competitive/fluorescence; filed as Kd, often an IC50 or EC50 that approximates it; ≥ and ≤ were set here for values at or beyond the usual limits of such assays; settings: source organism: human gammaherpesvirus 4
HLA-C*08:02 = assay: IEDB peptide-MHC binding, purified MHC/direct/fluorescence; filed as Kd, often an IC50 or EC50 that approximates it; ≥ and ≤ were set here for values at or beyond the usual limits of such assays; settings: source organism: Giardia lamblia ATCC 50803
HLA-C*03:03 = assay: as above; settings: source organism: Giardia lamblia ATCC 50803
HLA-C*12:03 = assay: as above; settings: source organism: Giardia lamblia ATCC 50803
HLA-C*05:01 = assay: as above; settings: source organism: Giardia lamblia ATCC 50803
HLA-B*27:20 = assay: IEDB peptide-MHC binding, purified MHC/competitive/fluorescence; filed as Kd, often an IC50 or EC50 that approximates it; ≥ and ≤ were set here for values at or beyond the usual limits of such assays; settings: source organism: Giardia lamblia ATCC 50803
HLA-B*46:01 = assay: as above; settings: source organism: Giardia lamblia ATCC 50803
[14] = source organism: Human immunodeficiency virus 1
[15] = source organism: Mycobacterium tuberculosis variant bovis BCG str. Pasteur 1173P2
[16] = source organism: Staphylococcus aureus subsp. aureus N315
[17] = source organism: Rickettsia felis URRWXCal2
[18] = source organism: human gammaherpesvirus 4
[19] = source organism: Giardia lamblia ATCC 50803

With EYLRIPLTI the Kd (HLA-A*24:02 [1]; source organism: Entamoeba histolytica HM-1:IMSS) was no more than 0.0001 µM.

FRHSVVVPY gave a Kd (HLA-C*07:02; source organism: Homo sapiens) of no more than 0.001 µM, a Kd (HLA-B*15:01 [2]) of 0.315 µM and a Kd (HLA-B*08:01) of no less than 20 µM. It also gave a Kd (HLA-A*26:03) of no less than 20 µM, a Kd (HLA-A*02:06; source organism: Homo sapiens) of no less than 20 µM and a Kd (HLA-A*30:01) of 4.08 µM. For the same sequence, the Kd (HLA-B*39:01) was no less than 20 µM, the Kd (HLA-A*02:03; source organism: Homo sapiens) was no less than 20 µM and the Kd (HLA-B*18:01) was 0.477 µM. The Kd (HLA-A*26:02; source organism: Homo sapiens) was no less than 20 µM.

In the case of ITCKAFGLY, the IC50 (HLA-B*15:01 [3]) is reported as 14 µM, the IC50 (HLA-A*01:01 [4]) is reported as 1.55 µM and the IC50 (HLA-A*03:01) is reported as 15.4 µM. For the same sequence, the IC50 (HLA-A*11:01) was 2.82 µM, the IC50 (HLA-A*24:02 [5]) was no less than 85.1 µM and the IC50 (HLA-A*02:01 [6]) was no less than 173 µM.

In the case of LYNTIAVLY, the Kd (HLA-C*07:02; [14]) is reported as 2.13 µM, the Kd (HLA-A*02:06; [14]) is reported as 0.759 µM and the Kd (HLA-A*02:03; [14]) is reported as 0.721 µM. For the same sequence, the Kd (HLA-A*26:02; [14]) was no less than 20 µM, the Kd (HLA-B*15:17) was no less than 20 µM and the Kd (HLA-B*35:01) was 1.87 µM. For the same sequence, the Kd (HLA-A*02:01 [7]) was 2.32 µM.

MAAVRTTAL gave a Kd (HLA-B*45:06; [15]) of no less than 5 µM, a Kd (HLA-B*83:01; [15]) of 0.508 µM and a Kd (HLA-C*04:01; [15]) of no less than 20 µM. The Kd (HLA-B*15:42; [15]) was no less than 5 µM, the Kd (HLA-C*14:02 [8]; [15]) was 0.0144 µM and the Kd (HLA-A*68:23) was 0.0055 µM. It also gave a Kd (HLA-C*06:02 [9]) of 0.104 µM.

MVIKWIHER was tested, and the Kd (HLA-B*45:06; [16]) was no less than 5 µM, the Kd (HLA-A*29:02) was 0.548 µM and the Kd (HLA-A*32:07) was 0.203 µM. For the same sequence, the Kd (HLA-A*01:01 [10]) was 17 µM, the Kd (HLA-B*15:42; [16]) was no less than 5 µM and the Kd (HLA-A*32:15) was 0.0525 µM.

RWLPLVSLF gave a Kd (HLA-C*14:02 [11]) of 0.399 µM, a Kd (HLA-C*15:02; [17]) of no less than 20 µM and a Kd (HLA-C*06:02 [12]; [17]) of no less than 20 µM. For the same sequence, the Kd (HLA-A*24:02 [1]; [17]) was no more than 0.0001 µM.

SSYGNIRAV showed an IC50 (HLA-B*40:02) of 1.8 µM.

With VYALPLKML the IC50 (HLA-A*24:02 [13]) was 7.5 µM.

Sequence WPTPKTHPV has a Kd (HLA-B*45:06; [18]) of no less than 5 µM, a Kd (HLA-B*83:01; [18]) of 3.47 µM and a Kd (HLA-B*15:42; [18]) of no less than 5 µM. The Kd (HLA-C*14:02 [8]; [18]) was 0.143 µM and the Kd (HLA-A*03:19) was 1.08 µM.

YMRERFEPM gave a Kd (HLA-C*08:02) of no less than 20 µM, a Kd (HLA-C*03:03) of 0.452 µM and a Kd (HLA-C*12:03) of 0.038 µM. It also gave a Kd (HLA-C*15:02; [19]) of 0.07 µM, a Kd (HLA-C*05:01) of no less than 20 µM and a Kd (HLA-C*06:02 [12]; [19]) of 0.022 µM. For the same sequence, the Kd (HLA-B*45:06; [19]) was no less than 5 µM, the Kd (HLA-B*83:01; [19]) was no less than 5 µM and the Kd (HLA-C*04:01; [19]) was no less than 5 µM. It also gave a Kd (HLA-B*27:20) of 0.0005 µM, a Kd (HLA-B*15:42; [19]) of no less than 5 µM and a Kd (HLA-C*14:02 [8]; [19]) of 0.0003 µM. It also gave a Kd (HLA-B*46:01) of 0.0218 µM.
